# Test results taken from the supplement of paper PMC11316812.
# ± gives the standard deviation of the averaged measurements.
# What was measured:
# hTERT-HMEC = test: percentage of EdU-negative (G0-arrested) nuclei per well, 72 h; higher = more G0 arrest; conditions: reference: sequence is the full UniProt precursor, the tested protein was the secreted form or ectodomain
# MCF7 = test: as above; conditions: reference: sequence is the full UniProt precursor, the tested protein was the secreted form or ectodomain
# [1] = protein concentration 0.0225 µM
# [2] = protein concentration 0.02117 µM
# [3] = protein concentration 0.2117 µM
# [4] = protein concentration 0.03125 µM
# [5] = protein concentration 0.3125 µM
# [6] = protein concentration 0.02325 µM
# [7] = protein concentration 0.2325 µM
# [8] = protein concentration 0.01175 µM
# [9] = protein concentration 0.1175 µM
# [10] = protein concentration 0.03034 µM
# [11] = protein concentration 0.3034 µM
# 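Note: secreted proteins added to cultured cells, EdU pulse at the end, nuclei found by Hoechst imaging, EdU status from nuclear versus surrounding ring intensity ratio, PBS as neutral control.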
sequence,measurement,setting,value
MSISLSSLILLPIWINMAQIQQGGPDEKEKTTALKDLLSRIDLDELMKKDEPPLDFPDTLEGFEYAFNEKGQLRHIKTGEPFVFNYREDLHRWNQKRYEALGEIITKYVYELLEKDCNLKKVSIPVDATESEPKSFIFMSEDALTNPQKLMVLIHGSGVVRAGQWARRLIINEDLDSGTQIPFIKRAVAEGYGVIVLNPNENYIEVEKPKIHVQSSSDSSDEPAEKRERKDKVSKETKKRRDFYEKYRNPQREKEMMQLYIRENGSPEEHAIYVWDHFIAQAAAENVFFVAHSYGGLAFVELMIQREADVKNKVTAVALTDSVHNVWHQEAGKTIREWMRENCCNWVSSSEPLDTSVESMLPDCPRVSAGTDRHELTSWKSFPSIFKFFTEASEAKTSSLKPAVTRRSHRIKHEEL [Q8WUF8],percentage of EdU-negative,hTERT-HMEC; [1],4.387 ± 0.021%
same,percentage of EdU-negative,hTERT-HMEC; protein concentration 0.225 µM,5.5592 ± 0.0051%
same,percentage of EdU-negative,MCF7; [1],24.1 ± 1.1%
same,percentage of EdU-negative,MCF7; protein concentration 0.225 µM,24 ± 0.46%
MSPLLRRLLLAALLQLAPAQAPVSQPDAPGHQRKVVSWIDVYTRATCQPREVVVPLTVELMGTVAKQLVPSCVTVQRCGGCCPDDGLECVPTGQHQVRMQILMIRYPSSQLGEMSLEEHSQCECRPKKKDSAVKPDRAATPHHRPQPRSVPGWDSAPGAPSPADITHPTPAPGPSAHAAPSTTSALTPGPAAAAADAAASSVAKGGA,percentage of EdU-negative,hTERT-HMEC; [2],4.57 ± 0.19%
same,percentage of EdU-negative,hTERT-HMEC; [3],6.4 ± 1.3%
same,percentage of EdU-negative,MCF7; [2],25 ± 0.51%
same,percentage of EdU-negative,MCF7; [3],26.88 ± 0.25%
MTDRQTDTAPSPSYHLLPGRRRTVDAAASRGQGPEPAPGGGVEGVGARGVALKLFVQLLGCSRFGGAVVRAGEAEPSGAARSASSGREEPQPEEGEEEEEKEEERGPQWRLGARKPGSWTGEAAVCADSAPAARAPQALARASGRGGRVARRGAEESGPPHSPSRRGSASRAGPGRASETMNFLLSWVHWSLALLLYLHHAKWSQAAPMAEGGGQNHHEVVKFMDVYQRSYCHPIETLVDIFQEYPDEIEYIFKPSCVPLMRCGGCCNDEGLECVPTEESNITMQIMRIKPHQGQHIGEMSFLQHNKCECRPKKDRARQEKKSVRGKGKGQKRKRKKSRYKSWSVPCGPCSERRKHLFVQDPQTCKCSCKNTDSRCKARQLELNERTCRCDKPRR,percentage of EdU-negative,hTERT-HMEC; [4],5.12 ± 1.2%
same,percentage of EdU-negative,hTERT-HMEC; [5],5.48 ± 0.89%
same,percentage of EdU-negative,MCF7; [4],27 ± 1.3%
same,percentage of EdU-negative,MCF7; [5],25.1 ± 0.32%
MGLFRGFVFLLVLCLLHQSNTSFIKLNNNGFEDIVIVIDPSVPEDEKIIEQIEDMVTTASTYLFEATEKRFFFKNVSILIPENWKENPQYKRPKHENHKHADVIVAPPTLPGRDEPYTKQFTECGEKGEYIHFTPDLLLGKKQNEYGPPGKLFVHEWAHLRWGVFDEYNEDQPFYRAKSKKIEATRCSAGISGRNRVYKCQGGSCLSRACRIDSTTKLYGKDCQFFPDKVQTEKASIMFMQSIDSVVEFCNEKTHNQEAPSLQNIKCNFRSTWEVISNSEDFKNTIPMVTPPPPPVFSLLKISQRIVCLVLDKSGSMGGKDRLNRMNQAAKHFLLQTVENGSWVGMVHFDSTATIVNKLIQIKSSDERNTLMAGLPTYPLGGTSICSGIKYAFQVIGELHSQLDGSEVLLLTDGEDNTASSCIDEVKQSGAIVHFIALGRAADEAVIEMSKITGGSHFYVSDEAQNNGLIDAFGALTSGNTDLSQKSLQLESKGLTLNSNAWMNDTVIIDSTVGKDTFFLITWNSLPPSISLWDPSGTIMENFTVDATSKMAYLSIPGTAKVGTWAYNLQAKANPETLTITVTSRAANSSVPPITVNAKMNKDVNSFPSPMIVYAEILQGYVPVLGANVTAFIESQNGHTEVLELLDNGAGADSFKNDGVYSRYFTAYTENGRYSLKVRAHGGANTARLKLRPPLNRAAYIPGWVVNGEIEANPPRPEIDEDTQTTLEDFSRTASGGAFVVSQVPSLPLPDQYPPSQITDLDATVHEDKIILTWTAPGDNFDVGKVQRYIIRISASILDLRDSFDDALQVNTTDLSPKEANSKESFAFKPENISEENATHIFIAIKSIDKSNLTSKVSNIAQVTLFIPQANPDDIDPTPTPTPTPTPDKSHNSGVNISTLVLSVIGSVVIVNFILSTTI [Q14CN2],percentage of EdU-negative,hTERT-HMEC; [1],6.239 ± 0.015%
same,percentage of EdU-negative,hTERT-HMEC; protein concentration 0.225 µM,66 ± 6.4%
same,percentage of EdU-negative,MCF7; [1],26.84 ± 0.26%
same,percentage of EdU-negative,MCF7; protein concentration 0.225 µM,30.6 ± 2%
MDLLQFLAFLFVLLLSGMGATGTLRTSLDPSLEIYKKMFEVKRREQLLALKNLAQLNDIHQQYKILDVMLKGLFKVLEDSRTVLTAADVLPDGPFPQDEKLKDAFSHVVENTAFFGDVVLRFPRIVHYYFDHNSNWNLLIRWGISFCNQTGVFNQGPHSPILSLMAQELGISEKDSNFQNPFKIDRTEFIPSTDPFQKALREEEKRRKKEEKRKEIRKGPRISRSQSEL [Q9H6E4],percentage of EdU-negative,hTERT-HMEC; [6],5.552 ± 0.014%
same,percentage of EdU-negative,hTERT-HMEC; [7],6.34 ± 0.88%
same,percentage of EdU-negative,MCF7; [6],27.1 ± 0.79%
same,percentage of EdU-negative,MCF7; [7],26.7 ± 0.95%
MRLPLLLVFASVIPGAVLLLDTRQFLIYNEDHKRCVDAVSPSAVQTAACNQDAESQKFRWVSESQIMSVAFKLCLGVPSKTDWVAITLYACDSKSEFQKWECKNDTLLGIKGEDLFFNYGNRQEKNIMLYKGSGLWSRWKIYGTTDNLCSRGYEAMYTLLGNANGATCAFPFKFENKWYADCTSAGRSDGWLWCGTTTDYDTDKLFGYCPLKFEGSESLWNKDPLTSVSYQINSKSALTWHQARKSCQQQNAELLSITEIHEQTYLTGLTSSLTSGLWIGLNSLSFNSGWQWSDRSPFRYLNWLPGSPSAEPGKSCVSLNPGKNAKWENLECVQKLGYICKKGNTTLNSFVIPSESDVPTHCPSQWWPYAGHCYKIHRDEKKIQRDALTTCRKEGGDLTSIHTIEELDFIISQLGYEPNDELWIGLNDIKIQMYFEWSDGTPVTFTKWLRGEPSHENNRQEDCVVMKGKDGYWADRGCEWPLGYICKMKSRSQGPEIVEVEKGCRKGWKKHHFYCYMIGHTLSTFAEANQTCNNENAYLTTIEDRYEQAFLTSFVGLRPEKYFWTGLSDIQTKGTFQWTIEEEVRFTHWNSDMPGRKPGCVAMRTGIAGGLWDVLKCDEKAKFVCKHWAEGVTHPPKPTTTPEPKCPEDWGASSRTSLCFKLYAKGKHEKKTWFESRDFCRALGGDLASINNKEEQQTIWRLITASGSYHKLFWLGLTYGSPSEGFTWSDGSPVSYENWAYGEPNNYQNVEYCGELKGDPTMSWNDINCEHLNNWICQIQKGQTPKPEPTPAPQDNPPVTEDGWVIYKDYQYYFSKEKETMDNARAFCKRNFGDLVSIQSESEKKFLWKYVNRNDAQSAYFIGLLISLDKKFAWMDGSKVDYVSWATGEPNFANEDENCVTMYSNSGFWNDINCGYPNAFICQRHNSSINATTVMPTMPSVPSGCKEGWNFYSNKCFKIFGFMEEERKNWQEARKACIGFGGNLVSIQNEKEQAFLTYHMKDSTFSAWTGLNDVNSEHTFLWTDGRGVHYTNWGKGYPGGRRSSLSYEDADCVVIIGGASNEAGKWMDDTCDSKRGYICQTRSDPSLTNPPATIQTDGFVKYGKSSYSLMRQKFQWHEAETYCKLHNSLIASILDPYSNAFAWLQMETSNERVWIALNSNLTDNQYTWTDKWRVRYTNWAADEPKLKSACVYLDLDGYWKTAHCNESFYFLCKRSDEIPATEPPQLPGRCPESDHTAWIPFHGHCYYIESSYTRNWGQASLECLRMGSSLVSIESAAESSFLSYRVEPLKSKTNFWIGLFRNVEGTWLWINNSPVSFVNWNTGDPSGERNDCVALHASSGFWSNIHCSSYKGYICKRPKIIDAKPTHELLTTKADTRKMDPSKPSSNVAGVVIIVILLILTGAGLAAYFFYKKRRVHLPQEGAFENTLYFNSQSSPGTSDMKDLVGNIEQNEHSVI,percentage of EdU-negative,hTERT-HMEC; protein concentration 0.007 µM,4.48 ± 0.71%
same,percentage of EdU-negative,hTERT-HMEC; protein concentration 0.07 µM,5.07 ± 0.13%
same,percentage of EdU-negative,MCF7; protein concentration 0.007 µM,24.1 ± 0.79%
same,percentage of EdU-negative,MCF7; protein concentration 0.07 µM,24 ± 0.4%
MTGLCGYSAPDMRGLRLIMIPVELLLCYLLLHPVDATSYGKQTNVLMHFPLSLESQTPSSDPLSCQFLHPKSLPGFSHMAPLPKFLVSLALRNALEEAGCQADVWALQLQLYRQGGVNATQVLIQHLRGLQKGRSTERNVSVEALASALQLLAREQQSTGRVGRSLPTEDCENEKEQAVHNVVQLLPGVGTFYNLGTALYYATQNCLGKARERGRDGAIDLGYDLLMTMAGMSGGPMGLAISAALKPALRSGVQQLIQYYQDQKDANISQPETTKEGLRAISDVSDLEETTTLASFISEVVSSAPYWGWAIIKSYDLDPGAGSLEI,percentage of EdU-negative,hTERT-HMEC; [1],5.166 ± 0.011%
same,percentage of EdU-negative,hTERT-HMEC; protein concentration 0.225 µM,19.7 ± 0.93%
same,percentage of EdU-negative,MCF7; [1],26.5 ± 0.29%
same,percentage of EdU-negative,MCF7; protein concentration 0.225 µM,30.7 ± 0.48%
MRLSVRRVLLAAGCALVLVLAVQLGQQVLECRAVLAGLRSPRGAMRPEQEELVMVGTNHVEYRYGKAMPLIFVGGVPRSGTTLMRAMLDAHPEVRCGEETRIIPRVLAMRQAWSKSGREKLRLDEAGVTDEVLDAAMQAFILEVIAKHGEPARVLCNKDPFTLKSSVYLSRLFPNSKFLLMVRDGRASVHSMITRKVTIAGFDLSSYRDCLTKWNKAIEVMYAQCMEVGKEKCLPVYYEQLVLHPRRSLKLILDFLGIAWSDAVLHHEDLIGKPGGVSLSKIERSTDQVIKPVNLEALSKWTGHIPGDVVRDMAQIAPMLAQLGYDPYANPPNYGNPDPFVINNTQRVLKGDYKTPANLKGYFQVNQNSTSSHLGSS,percentage of EdU-negative,hTERT-HMEC; [1],5.18 ± 0.23%
same,percentage of EdU-negative,hTERT-HMEC; protein concentration 0.225 µM,36.4 ± 2.8%
same,percentage of EdU-negative,MCF7; [1],26.7 ± 0.75%
same,percentage of EdU-negative,MCF7; protein concentration 0.225 µM,30.1 ± 1.8%
MRLLPLAPGRLRRGSPRHLPSCSPALLLLVLGGCLGVFGVAAGTRRPNVVLLLTDDQDEVLGGMTPLKKTKALIGEMGMTFSSAYVPSALCCPSRASILTGKYPHNHHVVNNTLEGNCSSKSWQKIQEPNTFPAILRSMCGYQTFFAGKYLNEYGAPDAGGLEHVPLGWSYWYALEKNSKYYNYTLSINGKARKHGENYSVDYLTDVLANVSLDFLDYKSNFEPFFMMIATPAPHSPWTAAPQYQKAFQNVFAPRNKNFNIHGTNKHWLIRQAKTPMTNSSIQFLDNAFRKRWQTLLSVDDLVEKLVKRLEFTGELNNTYIFYTSDNGYHTGQFSLPIDKRQLYEFDIKVPLLVRGPGIKPNQTSKMLVANIDLGPTILDIAGYDLNKTQMDGMSLLPILRGASNLTWRSDVLVEYQGEGRNVTDPTCPSLSPGVSQCFPDCVCEDAYNNTYACVRTMSALWNLQYCEFDDQEVFVEVYNLTADPDQITNIAKTIDPELLGKMNYRLMMLQSCSGPTCRTPGVFDPGYRFDPRLMFSNRGSVRTRRFSKHLL,percentage of EdU-negative,hTERT-HMEC; [8],5.009 ± 0.019%
same,percentage of EdU-negative,hTERT-HMEC; [9],5.44 ± 1.4%
same,percentage of EdU-negative,MCF7; [8],25.19 ± 0.18%
same,percentage of EdU-negative,MCF7; [9],25.1 ± 1.3%
MQGAQEASASEMLPLLLPLLWAGALAQERRFQLEGPESLTVQEGLCVLVPCRLPTTLPASYYGYGYWFLEGADVPVATNDPDEEVQEETRGRFHLLWDPRRKNCSLSIRDARRRDNAAYFFRLKSKWMKYGYTSSKLSVRVMALTHRPNISIPGTLESGHPSNLTCSVPWVCEQGTPPIFSWMSAAPTSLGPRTTQSSVLTITPRPQDHSTNLTCQVTFPGAGVTMERTIQLNVSYAPQKVAISIFQGNSAAFKILQNTSSLPVLEGQALRLLCDADGNPPAHLSWFQGFPALNATPISNTGVLELPQVGSAEEGDFTCRAQHPLGSLQISLSLFVHWKPEGRAGGVLGAVWGASITTLVFLCVCFIFRVKTRRKKAAQPVQNTDDVNPVMVSGSRGHQHQFQTGIVSDHPAEAGPISEDEQELHYAVLHFHKVQPQEPKVTDTEYSEIKIHK,percentage of EdU-negative,hTERT-HMEC; [10],5.1074 ± 0.0018%
same,percentage of EdU-negative,hTERT-HMEC; [11],5.306 ± 0.046%
same,percentage of EdU-negative,MCF7; [10],22.4 ± 2.3%
same,percentage of EdU-negative,MCF7; [11],27.1 ± 0.29%
